± gives the uncertainty stated by the source.
Test: self-splicing fitness, log relative to wild type (ln ratio); higher = more splicing; Tetrahymena group I intron in knt gene, E. coli kanamycin selection, DiMSum; sequences stand for … in CUCUCU…GGAGGGAAAAGUUAUCAGGCAUGCACCUGGUAGCUAGUCUUUAAACCAAUAGAUUGCAUCGGUUUAAAAGGCAAGACCGUCAAAUUGCGGGAAAGGGGUCAACAGCCGUUCAGUACCAAGUCUCAGGGGAAACUUUGAGAUGGCCUUGCAAAGGGUAUGGUAAUAAGCUGACGGACAUGGUCCUAACCACGCAGCCAAGUCCUAAGUCAACAGAUCUUCUGUUGAUAUGGAUGCAGUUCACAGACUAAAUGUCGGUCGGGGAAGAUGUAUUCUUCUCAUAAGAUAUAGUCGGACCUCUCCUUAAUGGGAGCUAGCGGAUGAAGUGAUGCAACACUGGAGCCGCUGGGAACUAAUUUGUAUGCGAAAGUAUAUUGAUUAGUUUUGGAGUACUCGUGGUCG
In short: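 DiMSum derived fitness as the error-weighted combination of fold changes across replicates, kanamycin versus no kanamycin, normalised to wild type. E. coli BL21(DE3) held the library, which randomised all eight P1ex-region intron nucleotides within the knt kanamycin-resistance gene on pET-22b(+). Six replicate transformations grew overnight at 37°C or 30°C on LB agar with or without 25 μg/mL kanamycin, also containing 100 μg/mL carbenicillin, 50 μM IPTG and 0.2% rhamnose, and pooled colonies were amplicon-sequenced on an Illumina HiSeq 2500.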

Row | Sequence | self-splicing fitness (ln) (30 °C) | self-splicing fitness (ln) (37 °C)
1 | UAAGAGCAAUAUUACGCCGG | -2.97 ± 0.31 | -1.72 ± 0.26
2 | CAAGAGCAAUAUUACGGUCU | -2.35 ± 0.16 | -1.97 ± 0.22
3 | CCAUAGCAAUAUUACGAAAA | -3.02 ± 0.29 | –
4 | CGUAAGCAAUAUUACGUACU | -0.922 ± 0.098 | -0.936 ± 0.11
5 | AUCAAGCAAUAUUACGCAGA | -2.21 ± 0.18 | -2.52 ± 0.23
6 | ACGAAGCAAUAUUACGGAAG | -2.54 ± 0.12 | -2.4 ± 0.19
7 | UUGUAGCAAUAUUACGAAGA | -3.14 ± 0.33 | –
8 | GGUUAGCAAUAUUACGGAGG | -3.02 ± 0.2 | -2.78 ± 0.18
9 | UCUGAGCAAUAUUACGCGCA | -2.16 ± 0.3 | –
10 | UACUAGCAAUAUUACGACCC | – | -0.364 ± 0.39
11 | CUUGAGCAAUAUUACGGUCG | -1.67 ± 0.15 | -2.3 ± 0.3
12 | ACCAAGCAAUAUUACGGUUG | -3.21 ± 0.11 | -3.88 ± 0.23
13 | CAAAAGCAAUAUUACGCAGU | -4.31 ± 0.24 | -3.64 ± 0.27
14 | CCUUAGCAAUAUUACGCGAG | -4.2 ± 0.31 | -3.27 ± 0.28
15 | UGGUAGCAAUAUUACGUUAA | -3.27 ± 0.21 | -1.78 ± 0.17
16 | UUCCAGCAAUAUUACGUUAU | -3.08 ± 0.12 | -1.95 ± 0.15
17 | GCGGAGCAAUAUUACGGUAA | -3.29 ± 0.26 | -2.7 ± 0.31
18 | UAUCAGCAAUAUUACGUGGU | -3.97 ± 0.2 | -0.774 ± 0.13
19 | UGCUAGCAAUAUUACGGCGG | -1.15 ± 0.16 | -0.887 ± 0.23
20 | GACAAGCAAUAUUACGAUCG | -0.776 ± 0.086 | -0.39 ± 0.11
21 | UCGAAGCAAUAUUACGGUAA | -2.11 ± 0.16 | -0.334 ± 0.13
22 | GGUUAGCAAUAUUACGCCCA | -0.993 ± 0.27 | -1.13 ± 0.3
23 | CCAAAGCAAUAUUACGCCCG | -0.324 ± 0.15 | 0.862 ± 0.18
24 | UAUUAGCAAUAUUACGAGUG | -0.139 ± 0.069 | 0.196 ± 0.087
25 | CCUCAGCAAUAUUACGGGCU | -2.67 ± 0.18 | -2.57 ± 0.25

Row | Sequence | self-splicing fitness (ln) (30 °C) | self-splicing fitness (ln) (37 °C)
26 | GGAAAGCAAUAUUACGACGA | -0.602 ± 0.13 | 0.0265 ± 0.16
27 | GCUAAGCAAUAUUACGGAAC | -1.46 ± 0.093 | -0.743 ± 0.1
28 | GCCGAGCAAUAUUACGACAA | -3.38 ± 0.34 | -2.05 ± 0.24
29 | ACGUAGCAAUAUUACGGUCU | -0.728 ± 0.078 | -0.139 ± 0.097
30 | ACGAAGCAAUAUUACGAUGU | -3.96 ± 0.19 | -2.74 ± 0.18
31 | UGAAAGCAAUAUUACGAGAU | -2.93 ± 0.14 | -2.18 ± 0.19
32 | UAUAAGCAAUAUUACGCAGU | -3.27 ± 0.2 | -1.68 ± 0.15
33 | UGCCAGCAAUAUUACGGGGC | -3.04 ± 0.16 | -1.74 ± 0.17
34 | ACUAAGCAAUAUUACGCGUC | -4.43 ± 0.41 | -2.1 ± 0.22
35 | AGGAAGCAAUAUUACGACAG | -2.74 ± 0.19 | -1.64 ± 0.18
36 | UCCGAGCAAUAUUACGUGCG | -3.49 ± 0.43 | -2.63 ± 0.34
37 | UUGCAGCAAUAUUACGCUAA | -1.12 ± 0.16 | -0.551 ± 0.16
38 | GGGCAGCAAUAUUACGCAAU | -0.2 ± 0.071 | -0.127 ± 0.085
39 | GUGGAGCAAUAUUACGCAAA | -2.28 ± 0.43 | -1.83 ± 0.25
40 | UAGAAGCAAUAUUACGGUGC | – | -1.46 ± 0.48
41 | GUGAAGCAAUAUUACGUUGC | – | -1.92 ± 0.46
42 | AAGUAGCAAUAUUACGCUCU | -1.25 ± 0.18 | -1.29 ± 0.17
43 | UUAUAGCAAUAUUACGGUAG | -1.38 ± 0.14 | -0.483 ± 0.14
44 | CAGAAGCAAUAUUACGUCCU | -1.94 ± 0.18 | -0.858 ± 0.16
45 | GGAUAGCAAUAUUACGAGAU | -3.46 ± 0.32 | 0.361 ± 0.15
46 | AGCUAGCAAUAUUACGCGAC | -3.48 ± 0.47 | -2.38 ± 0.43
47 | AUCUAGCAAUAUUACGUAGA | -2.39 ± 0.12 | -0.832 ± 0.11
48 | GUUAAGCAAUAUUACGGUCA | -0.91 ± 0.098 | -0.943 ± 0.092
49 | GGGUAGCAAUAUUACGUUAU | -3.17 ± 0.25 | -1.33 ± 0.15
50 | GUGCAGCAAUAUUACGCGUC | -3.39 ± 0.3 | -1.4 ± 0.21

Row | Sequence | self-splicing fitness (ln) (30 °C) | self-splicing fitness (ln) (37 °C)
51 | CACCAGCAAUAUUACGGUGA | -2.61 ± 0.095 | -3.26 ± 0.15
52 | AGCCAGCAAUAUUACGCGUC | -2.8 ± 0.13 | -1.23 ± 0.12
53 | CAAGAGCAAUAUUACGUUGC | -3.28 ± 0.2 | -2.38 ± 0.23
54 | GCGCAGCAAUAUUACGUAAA | 0.442 ± 0.089 | 0.263 ± 0.12
55 | CUCUAGCAAUAUUACGAUAU | -3.45 ± 0.24 | -3.2 ± 0.25
56 | UUGAAGCAAUAUUACGGACG | -0.0419 ± 0.12 | 0.902 ± 0.15
57 | CUAUAGCAAUAUUACGUGAC | -1.2 ± 0.15 | -0.55 ± 0.16
58 | CUAAAGCAAUAUUACGUGGA | -3.7 ± 0.2 | -2.64 ± 0.19
59 | UCGGAGCAAUAUUACGGACG | -1.65 ± 0.21 | 0.113 ± 0.17
60 | UCAGAGCAAUAUUACGGCGU | -3.42 ± 0.22 | -2.05 ± 0.18
61 | CAUAAGCAAUAUUACGUUGC | -4.07 ± 0.3 | -3.3 ± 0.3
62 | AAGUAGCAAUAUUACGAUGG | -3.03 ± 0.2 | -2.75 ± 0.33
63 | UGCCAGCAAUAUUACGAUCC | -3.25 ± 0.29 | -1.11 ± 0.42
64 | AAUGAGCAAUAUUACGCAAU | -2.49 ± 0.23 | -2.25 ± 0.25
65 | AGAUAGCAAUAUUACGCACA | -0.827 ± 0.07 | -0.123 ± 0.087
66 | AUCGAGCAAUAUUACGUGUA | -3.46 ± 0.33 | -2.11 ± 0.18
67 | CACUAGCAAUAUUACGAUAA | -3.35 ± 0.2 | -1.59 ± 0.15
68 | AGCCAGCAAUAUUACGGCUA | -2.42 ± 0.15 | -0.727 ± 0.11
69 | GCGCAGCAAUAUUACGCACG | – | -1.39 ± 0.3
70 | GAGAAGCAAUAUUACGUGAG | -1.32 ± 0.058 | -1.57 ± 0.1
71 | AGCAAGCAAUAUUACGUGAG | -2.58 ± 0.087 | -1.44 ± 0.089
72 | ACUCAGCAAUAUUACGUAAA | -1.36 ± 0.069 | -0.79 ± 0.09
73 | AGUUAGCAAUAUUACGACCC | -0.338 ± 0.19 | -0.0159 ± 0.49
74 | GCCCAGCAAUAUUACGGACA | -0.873 ± 0.12 | -0.931 ± 0.13
75 | GAGCAGCAAUAUUACGACAC | -0.81 ± 0.23 | -0.627 ± 0.21

Row | Sequence | self-splicing fitness (ln) (30 °C) | self-splicing fitness (ln) (37 °C)
76 | UCCGAGCAAUAUUACGGGGA | -1.93 ± 0.15 | -0.603 ± 0.11
77 | GAUAAGCAAUAUUACGCACU | -1.21 ± 0.16 | -0.284 ± 0.2
78 | CAUGAGCAAUAUUACGCAAC | -1.07 ± 0.29 | -1.69 ± 0.43
79 | GGGAAGCAAUAUUACGUUUG | -2.72 ± 0.22 | -1.74 ± 0.21
80 | AAGCAGCAAUAUUACGAGCA | -0.694 ± 0.073 | -0.435 ± 0.086
81 | GCGGAGCAAUAUUACGUCCG | -0.898 ± 0.32 | -0.455 ± 0.25
82 | AUCAAGCAAUAUUACGCAGU | -2.61 ± 0.14 | -1.71 ± 0.15
83 | GACAAGCAAUAUUACGAGGU | -3.51 ± 0.15 | -2.92 ± 0.16
84 | GCAAAGCAAUAUUACGUAGG | -1.52 ± 0.05 | -0.897 ± 0.074
85 | GUGGAGCAAUAUUACGAUAC | -1.47 ± 0.26 | -0.631 ± 0.42
86 | CGGUAGCAAUAUUACGAGCG | -0.978 ± 0.19 | -0.291 ± 0.14
87 | UUUCAGCAAUAUUACGUUUA | -1.34 ± 0.11 | -0.334 ± 0.13
88 | UGAUAGCAAUAUUACGUAUU | -3.26 ± 0.25 | -2.34 ± 0.29
89 | CGUGAGCAAUAUUACGUAUG | -1.37 ± 0.11 | -0.0658 ± 0.12
90 | AUUAAGCAAUAUUACGGCAU | -0.722 ± 0.076 | -0.458 ± 0.094
91 | GUCGAGCAAUAUUACGUCUG | -3.5 ± 0.43 | -2.51 ± 0.3
92 | CCUAAGCAAUAUUACGUCGG | -2.3 ± 0.29 | -1.51 ± 0.24
93 | GCAUAGCAAUAUUACGGUUU | -1.62 ± 0.08 | -0.625 ± 0.085
94 | UAGGAGCAAUAUUACGUCCA | -1.23 ± 0.17 | -0.339 ± 0.18
95 | UCUUAGCAAUAUUACGUGGU | -3.39 ± 0.16 | -3.1 ± 0.23
96 | UCUCAGCAAUAUUACGAGGG | -2.87 ± 0.11 | -1.31 ± 0.12
97 | GGAAAGCAAUAUUACGGAUA | -2.59 ± 0.21 | -1.55 ± 0.19
